Measured values as given in the DeepSol protein solubility set.

Test: soluble on expression in E. coli; label from the status in PepcDB or PDB records

Sequence | soluble on expression in E. coli
MGSDKIHHHHHHMTRKNKEQPAMSNNTSSNTNGKPQKRLIIITGDKGGVGKSTFARAIFQLYINKNLPCVAYEADLRNPQIERYFQKDYRPIIRYIDIFHRGGADDLLINLDESDCPITLLDLPAQSGCFFESYVKELAFFEVLKTEINCRVTMVSVISRVLDSINVLEKLRELCKDQVDYIVVKNLFHGEEEKFERYNDSSLRQNMLAEGLIELVMPDLFYKSYDFLDRHALTFNEGQTHQETNIVIKSRIKSWVAEFEAQIKPAFNFLGFDIQPDDCYYPAVVEKSKELRENEEKEKAKNQDANLPSEDIAA | not soluble
MGRTSKDKRDVYYRLAKENGWRARSAFKLLQLDKEFQLFQGVTRAVDLCAAPGSWSQVLSQKIGGQGSGHVVAVDLQAMAPLPGVVQIQGDITQLSTAKEIIQHFKGCPADLVVCDGAPDVTGLHDVDEYMQAQLLLAALNIATHVLKPGGCFVAKIFRGRDVTLLYSQLQVFFSSVLCAKPRSSRNSSIEAFAVCQGYDPPEGFIPDLSKPLLDHSYDPDFNQLDGPTRIIVPFVTCGDLSSYDSDRSYPLDLEGGSEYKYTPPTQPPISPPYQEACTLKRKGQLAKEIRPQDCPISRVDTFPQPLAAPQCHTLLAPEMEDNEMSCSP | soluble
MAALVDLVNFQLENAKALSTVLRQETQAITARVSSEIESIAKRKMTLIDQLRTTDQRIASHPHVNQLTEDEHLSQVVAQIQSIVLDCQQVNRVNGESLSRAQLSFNKLNNMLQHTHGKIGMTYNAGGKTHTISTLGTNIKA | not soluble
MAHHHHHHMLRRVIVGGVCRRASPSIAGRMVAARYAATIPTSTVASTTMSSSPTSRDDASTRAVVSEVPNLSFLASKTVLAETVEQTIEVCEALLNEIPKVKGAKEKHDLIDSTSNVLCLLLDPCEFVRQIHPDEEYKKHAAYAFQKGYEYMSKVNSRRDLYDVIVELDSPEGRKQLDDEEIKNVVQLKRDMESNGIHLSDALREKVTEMNIEKEDLAMRFLTEQGAKNPFATLRYLLRCRYELAKLLGFESYAEQQLRGTMLGNQQSVWHFLCGIAHKYRSAAEKELNLIRQNVGEVRNRQNITDDTRARVAHSLRRDAEPAKAEEYFSVANCIRGIQCLCSEVFGLRLEEVPFEREEVFNPDAKKFYVYDENRAFLGIIVLDMYASDMKYCQAGHLTLQLGCKPHQEALARVGLKLPERQYPVVVLTCNVGALTPAQRLPNGRFDDESTLMHPSEVTTVFHEFGHAMHTIFGQTKVQNLAGTRSSIDFVETFSQLFEHFLTSHEFLRLWAHRINTREPISFDIVMKRNAAADMFKHLDMLDQVVLSAVDQTLHGPQPYTVYFPHGQNGHLGKRTLGDSSDYGRGTYNLAKILIDVCTPLSIVTPTESGVLGTLSFEHLSGYPAGYYGYLYSLSVARRIWSKKFEKDPLNRAAGKELVQEVMRHGAACNPVEVIEKYLGDNLDEIDIWA | not soluble
MTLVASSENTGLCPMTFDDSSGQTSHMLFQRLQYQRKTGRFCDVEIVVQNKSFAAHRNILAAHSPYFDAIFKYCKITKEQLTINSKSPQVFELFLNYMYSGTVIIDRSSVSELLRFANNFLIVKLKVYCAAYLDRYLDAANCLSIRTLAQRYNLPGLVKSATDYFDSNLNRCLLESRDIIGYTYTQLTRLIGDPKYVDCITSDTYLKLIVRWVGEEVSKREEIFRLLLESCEFREVSADTLEFLLDYSPLLSKSQKSRFLLLHVMETNNMLMEKYSTQLSSLRQKIVDLPILHDPSQFEDDIYDSSDSEEDPDDYIADGHPTSAQVVEYGNDVNNRLKMKIAFQPGNEKKRLKRPKGMKKHHLHPIPPINATENESIPWIDEDEIDGVYATCSLEGCHTYGPVDNLDPDDCEDEEDQPDENGPSTCIFCGLRTANEELLEKHKARHHNRNTYYMCHLCEFETNWSKQFYLHCAEHWTEIPYRCETCPFTSNEIQEFLTHRLQHTDERFFKCGECAWKGRTRSQLFAHERMHSVLDDRSLHCEECGRGFQQHSTLDHHVASHNDPRPYICEDCGFATKTADHLSLHRRQHTGDNFSCHIAGCDYSSTKKSQLAAHLRTHMAVRAHLCKICGRGFIEKSHLVRHERIHLEEKPFKCDQCEYASSRRDKLKEHIIKHHNSEVLTFQKTQRRKYKRQRMLAAASNIVNNPDALFRPITSDDAVSNWQATNDFSTYSPNPNDYGGPSTYGNPSSPQRAFSVVHPSQHQHHAQSPGCMSMMNVPLRDNHHQMQRQDSPGDSVGGGQGGGGGGGPEGSDNTHGVLMTPNLVMRSPHNRSAVQPQFNNLSTNSDPQQQQQQQQLRPFSLPTYGQMDLAQAAQLQQLQQQLQAAGLPPTGTPNNQDNSNNAWNPWNVQ | not soluble
MAQVPPPMTQVVTSAPPPTAAATVVAGAVAGQPQAVIQQGPPPTNIGYPPNATYSMASLYIGDLHPDVSEAMLFEKFSMAGPVLSIRVCRDNTSRLSLGYAYVNFQQPADAERALDTMNFEVIHGRPMRIMWSQRDPAARRAGNGNIFIKNLDRVIDNKSVYDTFSLFGNILSCKVATDDEGNSKGYGFVHFETEHSAQTAIEKVNGMLLSDKKVYVGKFQPRAQRMKELGESGLKYTNVFVKNFGEHLDQEKLSAMFSKFGEITSAVVMTDAQGKPKGFGFVAFADQDAAGQAVEKLNDSILEGTDCKLSVCRAQKKSERSAELKRKYEALKQERVQRYQGVNLYVKNIEEDLNDDGLRDHFSSFGTITSAKVMVDENGRSKGFGFVCFEKPEEATAAVTDMNSKMIGAKPLYVALAQRKEDRRAQLASQYMQRLATLRMGQQASGVPAMTQLYQPGQQGYFVPNPMNAQGRPGFQPQSAQIRGPPGQRVFQNQMFMQYPFNQRQVYPQQQGRPPMRTNDGRPQYGMAPRPAGAPRVGGPGVQMGGAPIRQQGPAPRGAPQKPFYQGPPRQQQPQQHSQQPAQQPGQQGQGQSGIVIHGQETLTSHMLAQAAPQEQKQLLGERIYALIEKMFPNHKEAGKITGMMLEIDNAELIMMLQDAELFRSKVEEAFGVLTNAQSAAASTSAPTAKN | not soluble
SKAAIYHAFSHKEAKDHDVQELGSQRAEAFVRAFLKQSIPHMSQEDCESHLQRKAVILEYFTRLKPRPRPKKKSKGLSAKQRRDMRLFDIKPEQQRYSLFLPLHELWKQYIRDLCNGLKPDTQPQMIQAKLLKADLHGAIISVTKSKCPSYVGVTGILLQETKHVFKIITREDHLKVIPKLNCVFTIEIDDFISYIYGSKFQLRASERSAKKFKAKGSIDL | soluble
MGSDKIHHHHHHMIDKLEFFIALAKEEHFGRAAEACGVTQPTLSAGIKQLEGQLGVMLVNRGSRFQGLTPEGKQVLVWARRIVGDSRSMREEMRAARHGLSGRIRIAAIPTALAMVARLTTPFREKHPGVTFSVLSRTSIEVLSLLGNFDIDAGITYLDNEPLGRVTSVPLYDERYQLITAVGNPYSDRDKVTWAEISRLPLCLLTPDMQNRRIIDQHLAEAGVQVRPTLESNSMIVLFSHIRTGKWSSIMPLNLAETFGFSEPIRAIPIVEPDASHTVGLVAAPREPHTPLVQALLDEAMALADDFRAHR | not soluble
MSLNCFISSYVRGNFYNRGRISAESLRASDDLIFLNVRPNKDGSLSFENPRIFENGKGVTSWEELIKSVRADVKGTKTKLRLGAASGEWKAMVADEAARVAFAKNIKKILEKNKLDGIDLDFEWAETEKEYEDYSLAILKMREVLGDKYVFSVSLHPVCYKISKEAIAAVDFISYQCYGPSPVRFPMEKYCSDIQMALAYGIPKEKLVAGVPFYGVTKDGSKKTEAYFSFVQDGLITGPAQNEVTYKGDVYVFDGQNNIRAKTRYAMDQQLKGMMSWDLATDMPLNDSRSLFKTMVEELGREGHHHHHH | soluble
MQYINESATVSASNNVEKLRKQGLKIYNFGIGEPDFTTPEGIIDYAFEMAKQGKTHYTPSAGIMELREKIASKLKTRNRIDANAENVLVTPTKFGINLAMMVILNPGDEVIIPDPYYVSYPDIVKLAGGKPVPVRTTDDYDIDLDEMRKFVTPRTRAIILNNPNNPTGKVLSEKEIRDLVDFALENDIYIVSDEIYEDLIYEGSLYSPASMGKEAFEHTITLNGFSKGYAMTGWRIGYFVATEEIVEAANIIQQQTITCASSISQYAALRALDDNESPARMRSEFRKRRDLAYGILSESTDMKVHKPEGAFYMFPGYSKDIPSEKIAEMLLNQEHVVVTPGSAFGDRGRHHFRISFATSEDIIKEGLERLVKFMHTL | soluble
MFSPQAYLIFNMRKPPFDNIKVRQAVMHAFNRKLVVDNIFFGLGKISTSPFVPTEMFFDKDIPAIPFDMKKARALIKESGINPGDYTIRQLSFPYGATWDRLGEYTKQALEQLGFKVNVESTDAGGWASRTGNWDFDLTTTYSYQYGDPALGVQRLYVTSNIVKGSPFANMQGYSNPESDKLWEQAAAEVDPAKRQELYNKIQALLVAEVANGFLVDME | not soluble
